Patent publication US20170088618A1

Assays:
[1] = target: human PD-1 expressed on cells (human) (UniProt Q15116); assay: cell-based or functional assay
[2] = target: cynomolgus PD-1 expressed on cells (cynomolgus) (UniProt B0LAJ3); assay: flow cytometry on CHO cells expressing cynomolgus PD-1; detection with anti-human IgG Fc (PE GeoMFI); fit of a flat control curve
[3] = target: human PD-1 expressed on cells (human) (UniProt Q15116); assay: flow cytometry on CHO cells expressing human PD-1; detection with anti-human IgG Fc (PE GeoMFI); fit of a flat control curve

Chain of UniProt Q15116 (Q15116 25-198 limits assumed): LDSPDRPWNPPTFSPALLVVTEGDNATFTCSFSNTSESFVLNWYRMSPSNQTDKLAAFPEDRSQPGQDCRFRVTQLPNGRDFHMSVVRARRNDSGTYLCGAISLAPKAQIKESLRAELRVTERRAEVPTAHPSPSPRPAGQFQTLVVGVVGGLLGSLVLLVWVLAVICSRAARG
Chain of UniProt B0LAJ3 (B0LAJ3 entry or part of it limits assumed): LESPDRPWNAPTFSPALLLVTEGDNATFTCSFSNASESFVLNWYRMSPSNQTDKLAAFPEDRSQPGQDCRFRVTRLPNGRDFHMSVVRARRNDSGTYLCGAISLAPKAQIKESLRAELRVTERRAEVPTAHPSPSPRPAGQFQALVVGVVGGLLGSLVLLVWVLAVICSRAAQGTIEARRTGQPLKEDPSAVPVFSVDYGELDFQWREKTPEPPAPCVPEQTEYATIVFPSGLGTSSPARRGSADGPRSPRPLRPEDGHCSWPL

Row | Substance | IL-17 and IFN-γ levels, human whole blood assay, EC50 [1] | LogEC50 [2] | LogEC50 [3]
1 | human IgG Fc fragment | > 100 nM | – | –
2 | huIgG1 Fc | – | -6.89 log10(nM) | -7.75 log10(nM)
